Data on six molecules can be found in patent publication US20110045489A1, “Polymerases for Incorporating Modified Nucleotides” (NEW ENGLAND BIOLABS, INC., priority 2008, published 2011).

The labels stand for the following.
B1: 9° N D141A/E143A/N491V/Y494H: 9° N DNA polymerase mutant (protein, UniProt Q56366 1-775, looked up, variant D141A E143A N491V Y494H)
DNA polymerase: MILDTDYITENGKPVIRVFKKENGEFKIEYDRTFEPYFYALLKDDSAIEDVKKVTAKRHGTVVKVKRAEKVQKKFLGRPIEVWKLYFNHPQDVPAIRDRIRAHPAVVDIYEYDIPFAKRYLIDKGLIPMEGDEELTMLAFAIATLYHEGEEFGTGPILMISYADGSEARVITWKKIDLPYVDVVSTEKEMIKRFLRVVREKDPDVLITYNGDNFDFAYLKKRCEELGIKFTLGRDGSEPKIQRMGDRFAVEVKGRIHFDLYPVIRRTINLPTYTLEAVYEAVFGKPKEKVYAEEIAQAWESGEGLERVARYSMEDAKVTYELGREFFPMEAQLSRLIGQSLWDVSRSSTGNLVEWFLLRKAYKRNELAPNKPDERELARRRGGYAGGYVKEPERGLWDNIVYLDFRSLYPSIIITHNVSPDTLNREGCKEYDVAPEVGHKFCKDFPGFIPSLLGDLLEERQKIKRKMKATVDPLEKKLLDYRQRAIKILAVSFHGYYGYAKARWYCKECAESVTAWGREYIEMVIRELEEKFGFKVLYADTDGLHATIPGADAETVKKKAKEFLKYINPKLPGLLELEYEGFYVRGFFVTKKKYAVIDEEGKITTRGLEIVRRDWSEIAKETQARVLEAILKHGDVEEAVRIVKEVTEKLSKYEVPPEKLVIHEQITRDLRDYKATGPHVAVAKRLAARGVKIRPGTVISYIVLKGSGRIGDRAIPADEFDPTKHRYDAEYYIENQVLPAVERILKAFGYRKEDLRYQKTKQVGLGAWLKVKGKK
B2: 9° N D141A/E143A/R406V/L408R: 9° N DNA polymerase mutant (protein, UniProt Q56366 1-775, looked up, variant D141A E143A R406V L408R)
DNA polymerase: MILDTDYITENGKPVIRVFKKENGEFKIEYDRTFEPYFYALLKDDSAIEDVKKVTAKRHGTVVKVKRAEKVQKKFLGRPIEVWKLYFNHPQDVPAIRDRIRAHPAVVDIYEYDIPFAKRYLIDKGLIPMEGDEELTMLAFAIATLYHEGEEFGTGPILMISYADGSEARVITWKKIDLPYVDVVSTEKEMIKRFLRVVREKDPDVLITYNGDNFDFAYLKKRCEELGIKFTLGRDGSEPKIQRMGDRFAVEVKGRIHFDLYPVIRRTINLPTYTLEAVYEAVFGKPKEKVYAEEIAQAWESGEGLERVARYSMEDAKVTYELGREFFPMEAQLSRLIGQSLWDVSRSSTGNLVEWFLLRKAYKRNELAPNKPDERELARRRGGYAGGYVKEPERGLWDNIVYLDFVSRYPSIIITHNVSPDTLNREGCKEYDVAPEVGHKFCKDFPGFIPSLLGDLLEERQKIKRKMKATVDPLEKKLLDYRQRAIKILANSFYGYYGYAKARWYCKECAESVTAWGREYIEMVIRELEEKFGFKVLYADTDGLHATIPGADAETVKKKAKEFLKYINPKLPGLLELEYEGFYVRGFFVTKKKYAVIDEEGKITTRGLEIVRRDWSEIAKETQARVLEAILKHGDVEEAVRIVKEVTEKLSKYEVPPEKLVIHEQITRDLRDYKATGPHVAVAKRLAARGVKIRPGTVISYIVLKGSGRIGDRAIPADEFDPTKHRYDAEYYIENQVLPAVERILKAFGYRKEDLRYQKTKQVGLGAWLKVKGKK
B3: 9° N D141A/E143A/R406T/L408E: 9° N DNA polymerase mutant (protein, UniProt Q56366 1-775, looked up, variant D141A E143A R406T L408E)
DNA polymerase: MILDTDYITENGKPVIRVFKKENGEFKIEYDRTFEPYFYALLKDDSAIEDVKKVTAKRHGTVVKVKRAEKVQKKFLGRPIEVWKLYFNHPQDVPAIRDRIRAHPAVVDIYEYDIPFAKRYLIDKGLIPMEGDEELTMLAFAIATLYHEGEEFGTGPILMISYADGSEARVITWKKIDLPYVDVVSTEKEMIKRFLRVVREKDPDVLITYNGDNFDFAYLKKRCEELGIKFTLGRDGSEPKIQRMGDRFAVEVKGRIHFDLYPVIRRTINLPTYTLEAVYEAVFGKPKEKVYAEEIAQAWESGEGLERVARYSMEDAKVTYELGREFFPMEAQLSRLIGQSLWDVSRSSTGNLVEWFLLRKAYKRNELAPNKPDERELARRRGGYAGGYVKEPERGLWDNIVYLDFTSEYPSIIITHNVSPDTLNREGCKEYDVAPEVGHKFCKDFPGFIPSLLGDLLEERQKIKRKMKATVDPLEKKLLDYRQRAIKILANSFYGYYGYAKARWYCKECAESVTAWGREYIEMVIRELEEKFGFKVLYADTDGLHATIPGADAETVKKKAKEFLKYINPKLPGLLELEYEGFYVRGFFVTKKKYAVIDEEGKITTRGLEIVRRDWSEIAKETQARVLEAILKHGDVEEAVRIVKEVTEKLSKYEVPPEKLVIHEQITRDLRDYKATGPHVAVAKRLAARGVKIRPGTVISYIVLKGSGRIGDRAIPADEFDPTKHRYDAEYYIENQVLPAVERILKAFGYRKEDLRYQKTKQVGLGAWLKVKGKK
B4: 9° N D141A/E143A/R406L/L408E: 9° N DNA polymerase mutant (protein, UniProt Q56366 1-775, looked up, variant D141A E143A R406L L408E)
DNA polymerase: MILDTDYITENGKPVIRVFKKENGEFKIEYDRTFEPYFYALLKDDSAIEDVKKVTAKRHGTVVKVKRAEKVQKKFLGRPIEVWKLYFNHPQDVPAIRDRIRAHPAVVDIYEYDIPFAKRYLIDKGLIPMEGDEELTMLAFAIATLYHEGEEFGTGPILMISYADGSEARVITWKKIDLPYVDVVSTEKEMIKRFLRVVREKDPDVLITYNGDNFDFAYLKKRCEELGIKFTLGRDGSEPKIQRMGDRFAVEVKGRIHFDLYPVIRRTINLPTYTLEAVYEAVFGKPKEKVYAEEIAQAWESGEGLERVARYSMEDAKVTYELGREFFPMEAQLSRLIGQSLWDVSRSSTGNLVEWFLLRKAYKRNELAPNKPDERELARRRGGYAGGYVKEPERGLWDNIVYLDFLSEYPSIIITHNVSPDTLNREGCKEYDVAPEVGHKFCKDFPGFIPSLLGDLLEERQKIKRKMKATVDPLEKKLLDYRQRAIKILANSFYGYYGYAKARWYCKECAESVTAWGREYIEMVIRELEEKFGFKVLYADTDGLHATIPGADAETVKKKAKEFLKYINPKLPGLLELEYEGFYVRGFFVTKKKYAVIDEEGKITTRGLEIVRRDWSEIAKETQARVLEAILKHGDVEEAVRIVKEVTEKLSKYEVPPEKLVIHEQITRDLRDYKATGPHVAVAKRLAARGVKIRPGTVISYIVLKGSGRIGDRAIPADEFDPTKHRYDAEYYIENQVLPAVERILKAFGYRKEDLRYQKTKQVGLGAWLKVKGKK
B5: 9° N D141A/E143A/R406S/L408R: 9° N DNA polymerase mutant (protein, UniProt Q56366 1-775, looked up, variant D141A E143A R406S L408R)
DNA polymerase: MILDTDYITENGKPVIRVFKKENGEFKIEYDRTFEPYFYALLKDDSAIEDVKKVTAKRHGTVVKVKRAEKVQKKFLGRPIEVWKLYFNHPQDVPAIRDRIRAHPAVVDIYEYDIPFAKRYLIDKGLIPMEGDEELTMLAFAIATLYHEGEEFGTGPILMISYADGSEARVITWKKIDLPYVDVVSTEKEMIKRFLRVVREKDPDVLITYNGDNFDFAYLKKRCEELGIKFTLGRDGSEPKIQRMGDRFAVEVKGRIHFDLYPVIRRTINLPTYTLEAVYEAVFGKPKEKVYAEEIAQAWESGEGLERVARYSMEDAKVTYELGREFFPMEAQLSRLIGQSLWDVSRSSTGNLVEWFLLRKAYKRNELAPNKPDERELARRRGGYAGGYVKEPERGLWDNIVYLDFSSRYPSIIITHNVSPDTLNREGCKEYDVAPEVGHKFCKDFPGFIPSLLGDLLEERQKIKRKMKATVDPLEKKLLDYRQRAIKILANSFYGYYGYAKARWYCKECAESVTAWGREYIEMVIRELEEKFGFKVLYADTDGLHATIPGADAETVKKKAKEFLKYINPKLPGLLELEYEGFYVRGFFVTKKKYAVIDEEGKITTRGLEIVRRDWSEIAKETQARVLEAILKHGDVEEAVRIVKEVTEKLSKYEVPPEKLVIHEQITRDLRDYKATGPHVAVAKRLAARGVKIRPGTVISYIVLKGSGRIGDRAIPADEFDPTKHRYDAEYYIENQVLPAVERILKAFGYRKEDLRYQKTKQVGLGAWLKVKGKK
B6: 9° N D141A/E143A/R406T/L408R: 9° N DNA polymerase mutant (protein, UniProt Q56366 1-775, looked up, variant D141A E143A R406T L408R)
DNA polymerase: MILDTDYITENGKPVIRVFKKENGEFKIEYDRTFEPYFYALLKDDSAIEDVKKVTAKRHGTVVKVKRAEKVQKKFLGRPIEVWKLYFNHPQDVPAIRDRIRAHPAVVDIYEYDIPFAKRYLIDKGLIPMEGDEELTMLAFAIATLYHEGEEFGTGPILMISYADGSEARVITWKKIDLPYVDVVSTEKEMIKRFLRVVREKDPDVLITYNGDNFDFAYLKKRCEELGIKFTLGRDGSEPKIQRMGDRFAVEVKGRIHFDLYPVIRRTINLPTYTLEAVYEAVFGKPKEKVYAEEIAQAWESGEGLERVARYSMEDAKVTYELGREFFPMEAQLSRLIGQSLWDVSRSSTGNLVEWFLLRKAYKRNELAPNKPDERELARRRGGYAGGYVKEPERGLWDNIVYLDFTSRYPSIIITHNVSPDTLNREGCKEYDVAPEVGHKFCKDFPGFIPSLLGDLLEERQKIKRKMKATVDPLEKKLLDYRQRAIKILANSFYGYYGYAKARWYCKECAESVTAWGREYIEMVIRELEEKFGFKVLYADTDGLHATIPGADAETVKKKAKEFLKYINPKLPGLLELEYEGFYVRGFFVTKKKYAVIDEEGKITTRGLEIVRRDWSEIAKETQARVLEAILKHGDVEEAVRIVKEVTEKLSKYEVPPEKLVIHEQITRDLRDYKATGPHVAVAKRLAARGVKIRPGTVISYIVLKGSGRIGDRAIPADEFDPTKHRYDAEYYIENQVLPAVERILKAFGYRKEDLRYQKTKQVGLGAWLKVKGKK

The assay relates to modified nucleotide. Description: Screen of DNA polymerase mutants for modified nucleotide incorporation. The format is biochemical. The source says:
In order to determine the extent of 3′-modified nucleotide incorporation by archaeon DNA polymerases, the titration assay described by Gardner and Jack (2002) was used. In this assay, the efficiency of incorporation of chain terminators was judged by the size of the reaction products in a polymerization reaction. As the efficiency of chain-terminator incorporation increased, the average reaction product size decreased because polymerization was more often halted by terminator addition. By comparing the amount of terminator required to give the same spectrum of reaction products, the relative efficiency of incorporation of the test compounds with the different polymerases was determined.
A complex library of 9° N DNA polymerase mutants was screened for enhanced incorporation of 3′-azido-ddCTP. Several classes of 9° N DNA polymerase mutants were identified with enhanced terminator incorporation. 9° N exo-L408S/Y409A/P410V (Therminator III™, NEB, Inc., Ipswich, Mass.) was purified and characterized in more detail. 9° N DNA polymerase single mutants P410V, L408S, and Y409A and double mutants L408S/P410V, L408S/Y409A, and Y409A/P410V were also purified for comparison. Purification and characterization of DNA polymerase mutants was as described in Gardner and Jack, Nucleic Acids Res. 27:2545-2553 (1999).
A library of 9° N DNA polymerase mutants was constructed by PCR amplification of the polymerase genes using gene-specific primers or codon optimization and gene synthesis Czar et al. Trends Biotechnol 27(2): 63-72 (2009)). The ability to incorporate 3′-modified nucleotide terminators was evaluated by the titration assay for chain terminator incorporation efficiency as described by Gardner and Jack (2002).
Furthermore, the same assay was used to measure 3′-amino-ddCTP incorporation by 9° N exo-L408S/Y409A/P410V (FIG. 3) and to measure rates of incorporation (FIG. 4). Examples of mutants that increased modified nucleotide incorporation by at least two-fold were: […]
On to B1, for which the “increase of modified nucleotide incorporation” value is recorded as “at least two-fold”. Then B2, with “at least two-fold”; and B3, with “at least two-fold”. As to B4, the “increase of modified nucleotide incorporation” value is reported as “at least two-fold”. Then B5, with “at least two-fold”. Then B6, with “at least two-fold”.
